In PMC5101909, “Crosslinked duplex DNA nanogels that target specified proteins”:

How the values were obtained:
[1] = molecular target: albumin (BSA) (bovine, UniProt P02769 25-607); assay: EtBr fluorescence (duplex displacement); EtBr-loaded nanogel; Nanogels generated in PBS; buffer, pH and temperature of thrombin binding assays not in the material (section 2.5 text missing); details: label: EtBr intercalated; 11 bp GCTCCGGTTGG/CCAACCGGAGC; 5' overhangs 7 nt T (aptaDNA) and 12 nt T (coDNA); 3' overhang 9 nt TGTGGTTGG (aptaDNA)
albumin (BSA), sequence (P02769 25-607): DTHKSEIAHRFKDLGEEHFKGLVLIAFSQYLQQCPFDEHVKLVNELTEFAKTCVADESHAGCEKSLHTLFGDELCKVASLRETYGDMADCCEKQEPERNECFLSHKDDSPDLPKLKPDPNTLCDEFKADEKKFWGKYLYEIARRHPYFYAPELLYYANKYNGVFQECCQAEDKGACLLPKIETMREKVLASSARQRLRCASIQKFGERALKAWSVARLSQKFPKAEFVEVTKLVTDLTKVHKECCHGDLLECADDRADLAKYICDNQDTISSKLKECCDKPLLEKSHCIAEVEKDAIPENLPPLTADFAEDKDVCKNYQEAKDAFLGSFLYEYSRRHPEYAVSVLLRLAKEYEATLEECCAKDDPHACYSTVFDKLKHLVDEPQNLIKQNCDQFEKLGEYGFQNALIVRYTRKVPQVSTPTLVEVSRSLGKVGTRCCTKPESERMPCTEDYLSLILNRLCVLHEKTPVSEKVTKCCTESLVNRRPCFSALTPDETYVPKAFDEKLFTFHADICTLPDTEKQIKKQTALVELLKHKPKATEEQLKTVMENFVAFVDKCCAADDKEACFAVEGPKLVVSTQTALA

[2] = molecular target: T1, thrombin (UniProt P00734;P00734 328-363;364-622); assay: EtBr fluorescence decrease (duplex displacement); EtBr-loaded nanogel; concentration dependent; Nanogels generated in PBS; buffer, pH and temperature of thrombin binding assays not in the material (section 2.5 text missing)
[3] = molecular target: T1, thrombin; assay: EMSA (agarose gel, SYBR Gold); aptamer polymer/thrombin 1/10; Nanogels generated in PBS; buffer, pH and temperature of thrombin binding assays not in the material (section 2.5 text missing)

B1: P(MPC/aptaDNA)/P(MPC/coDNA) nanogel (mixed)
DNA 1: TTTTTTTGCTCCGGTTGGTGTGGTTGG
DNA 2: TTTTTTTTTTTTCCAACCGGAGC
modifications: 5'-acrydite of both strands copolymerized with MPC (38/1 and 45/1)
[1]
  binding result: no binding
[2]
  binding result: binds

## TTTTTTTGCTCCGGTTGGTGTGGTTGG (structured_DNA, 5'-acrydite copolymerized with MPC (MPC/oligo 38/1)) [P(MPC/aptaDNA)]
[3]
  binding result: binds
